In article PMC9973331, “DNA Methylation and RNA-DNA Hybrids Regulate the Single-Molecule Localization of a DNA Methyltransferase on the Bacterial Nucleoid”:

Molecular target: T1, DnmA (WT) (Bacillus subtilis, UniProt O31504 1-879)
T1 sequence: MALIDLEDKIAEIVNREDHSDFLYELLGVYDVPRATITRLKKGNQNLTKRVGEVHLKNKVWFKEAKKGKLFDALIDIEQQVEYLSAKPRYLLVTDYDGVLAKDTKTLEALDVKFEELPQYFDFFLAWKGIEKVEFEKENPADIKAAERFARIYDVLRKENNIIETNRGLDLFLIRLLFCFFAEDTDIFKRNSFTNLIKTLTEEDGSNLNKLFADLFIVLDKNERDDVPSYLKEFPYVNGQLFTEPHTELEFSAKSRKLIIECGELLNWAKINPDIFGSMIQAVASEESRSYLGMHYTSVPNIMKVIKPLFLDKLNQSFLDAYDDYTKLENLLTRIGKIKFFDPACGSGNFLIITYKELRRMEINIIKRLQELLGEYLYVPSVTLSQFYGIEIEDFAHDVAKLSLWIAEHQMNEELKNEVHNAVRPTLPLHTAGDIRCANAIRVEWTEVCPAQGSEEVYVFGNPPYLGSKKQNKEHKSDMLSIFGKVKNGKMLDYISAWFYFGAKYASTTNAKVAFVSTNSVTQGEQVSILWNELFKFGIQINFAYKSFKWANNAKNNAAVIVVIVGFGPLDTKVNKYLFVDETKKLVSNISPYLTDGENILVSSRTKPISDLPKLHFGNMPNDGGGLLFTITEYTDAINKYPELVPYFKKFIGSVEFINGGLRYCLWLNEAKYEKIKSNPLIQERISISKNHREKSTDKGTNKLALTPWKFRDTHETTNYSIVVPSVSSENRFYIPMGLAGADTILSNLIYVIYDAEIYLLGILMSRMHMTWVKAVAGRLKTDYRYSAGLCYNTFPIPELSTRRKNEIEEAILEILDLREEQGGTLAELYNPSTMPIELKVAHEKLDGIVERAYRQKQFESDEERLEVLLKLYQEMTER
Experiment: EMSA; EMSA: 5x buffer 500 mM Tris-HCl pH 8, 1.25 M NaCl, 10% glycerol (1x: 100 mM Tris, 250 mM NaCl, 2% glycerol), 5 nM probe, 30 min at 25 C; 6% native PAGE in 1x TBE on ice
Conditions: protein: recombinant; tags: His-SUMO tag (pE-SUMO) removed by SUMO protease; label: 5' IRDye700 on strand 1; 5' IRDye800 on strand 2; blunt

B1: unmethylated dsDNA (oTMN67/oTMN68) (dsDNA)
DNA 1: CAAAACAGGATATGAAATAGTATTGGACGAGAGCTTTTTGGTGGCTTATACTATAG
DNA 2: CTATAGTATAAGCCACCAAAAAGCTCTCGTCCAATACTATTTCATATCCTGTTTTG
- apparent K (half saturation): 36.8 ± 14.2 nM

B2: RNA-DNA hybrid (oTMN67/oJRR271) (DNA:RNA)
DNA: B1 DNA 1
RNA: CUAUAGUAUAAGCCACCAAAAAGCUCUCGUCCAAUACUAUUUCAUAUCCUGUUUUG
modifications: strand 2 is RNA
- apparent K (half saturation): 321 ± 16.5 nM

B3: methylated dsDNA (oNLF001/oTMN68) (dsDNA)
DNA 1: B1 DNA 1
DNA 2: B1 DNA 2
modifications: m6A in strand 1 (oNLF001), exact position not visible in printed string; presumably in GACGAG
- apparent K (half saturation): 156 ± 76 nM
